# Positions count from the first letter of the chain named.
# T1: CD27 overexpressed on HEK293F cells (UniProt P26842 20-260, limits assumed)
# T1 construct: whole, on cells
# T1 sequence (looked up): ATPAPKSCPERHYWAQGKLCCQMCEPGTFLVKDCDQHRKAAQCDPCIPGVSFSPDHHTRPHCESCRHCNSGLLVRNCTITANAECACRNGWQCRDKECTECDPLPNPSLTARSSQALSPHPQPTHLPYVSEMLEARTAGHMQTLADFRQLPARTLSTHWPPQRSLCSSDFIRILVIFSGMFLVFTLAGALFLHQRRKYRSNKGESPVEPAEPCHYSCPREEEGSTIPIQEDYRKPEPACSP
# T2: GITR overexpressed on HEK293F cells (UniProt Q9Y5U5 26-241, limits assumed)
# T2 construct: whole, on cells
# T2 sequence (looked up): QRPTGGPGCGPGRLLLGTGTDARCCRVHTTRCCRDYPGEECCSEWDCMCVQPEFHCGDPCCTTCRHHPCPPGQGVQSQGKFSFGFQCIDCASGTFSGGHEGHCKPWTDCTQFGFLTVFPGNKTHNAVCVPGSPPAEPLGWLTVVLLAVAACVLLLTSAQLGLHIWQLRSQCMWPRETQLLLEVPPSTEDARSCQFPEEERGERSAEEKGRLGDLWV
# T3: OX40 overexpressed on HEK293F cells (UniProt P43489 29-277, limits assumed)
# T3 construct: whole, on cells
# T3 sequence (looked up): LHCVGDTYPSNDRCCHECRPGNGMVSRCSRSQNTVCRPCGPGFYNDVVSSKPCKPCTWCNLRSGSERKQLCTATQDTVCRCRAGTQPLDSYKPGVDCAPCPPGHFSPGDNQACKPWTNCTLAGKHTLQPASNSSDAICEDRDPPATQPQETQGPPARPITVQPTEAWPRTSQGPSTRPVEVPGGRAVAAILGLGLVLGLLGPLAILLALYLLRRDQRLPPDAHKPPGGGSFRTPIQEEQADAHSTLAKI
# T4: CD95
# T4 chain: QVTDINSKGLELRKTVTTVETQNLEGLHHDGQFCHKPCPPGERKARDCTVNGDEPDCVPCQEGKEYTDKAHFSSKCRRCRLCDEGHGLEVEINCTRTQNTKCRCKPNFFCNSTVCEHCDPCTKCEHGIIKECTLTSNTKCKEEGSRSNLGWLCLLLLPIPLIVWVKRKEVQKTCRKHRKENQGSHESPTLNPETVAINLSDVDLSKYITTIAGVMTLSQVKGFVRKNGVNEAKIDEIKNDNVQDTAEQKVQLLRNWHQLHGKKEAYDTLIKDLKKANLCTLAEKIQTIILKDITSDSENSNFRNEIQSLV
# T5: mouse CD137 protein (Biacore) (mouse, UniProt P20334 24-178, limits assumed)
# T5 construct: Construct used as SPR analyte not described
# T5 sequence: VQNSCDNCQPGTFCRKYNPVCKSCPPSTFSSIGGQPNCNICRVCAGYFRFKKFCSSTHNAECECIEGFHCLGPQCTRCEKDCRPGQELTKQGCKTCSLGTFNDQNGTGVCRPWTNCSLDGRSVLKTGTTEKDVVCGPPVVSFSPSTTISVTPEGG
# T6: mouse CD137 fused with human FC fragment (mouse, UniProt P20334 24-178, limits assumed)
# T6 construct: also called mouse CD137-Fc; not shown: human Fc fragment
# T6 sequence: T5 sequence
# B1: AG10059 (antibody, human IgG4 S228P, kappa, V domains shown)
# VH: EVQLVESGGGLVQPGGSLRLSCAASGYSITSGHYWAWIRQAPGKGLEWVSSISGYGSTTYYADSVKGRFTISRDNSKNTLYLQLNSLRAEDTAVYYCARGGSDAVLGDWFAYWGQGTLVTVSS
# VL: DIQLTQSPSSLSASVGDRVTITCRASQGIGSFLAWYQQKPGKAPKLLIYDASNLETGVPSRFSGSGSGTDFTLTISSLQPEDFATYYCQQGYYLWTFGQGTKVEIKR
# B2: AG10058 (antibody, human IgG4 S228P, kappa, V domains shown)
# VH: EVQLVESGGGLVQPGGSLRLSCAASGFSLSTSGVGVGWIRQAPGKGLEWLALIDWDDDKYYSPSLKSRLTISRDNSKNTLYLQLNSLRAEDTAVYYCARGGSDTVLGDWFAYWGQGTLVTVSS
# VL: B1 VL with G28S, I29V, G30S, S31P, F32Y, N53S, T56S, Y93S
# What was measured:
# [1] = target: T1, CD27 overexpressed on HEK293F cells; experiment: flow cytometry, HEK293F cells expressing the receptor [Cont.]
# [2] = target: T2, GITR overexpressed on HEK293F cells; experiment: as above
# [3] = target: T3, OX40 overexpressed on HEK293F cells; experiment: as above
# [4] = target: T7, CD40 overexpressed on HEK293F cells (UniProt P25942 21-277, limits assumed); experiment: as above
# T7 construct: whole, on cells
# [5] = target: T1, CD27 overexpressed on HEK293F cells; experiment: flow cytometry, HEK293F cells expressing the receptor, antibody 100 nM [Cont.]
# [6] = target: T2, GITR overexpressed on HEK293F cells; experiment: as above
# [7] = target: T3, OX40 overexpressed on HEK293F cells; experiment: as above
# [8] = target: T7, CD40 overexpressed on HEK293F cells; experiment: as above
# [9] = target: T4, CD95; experiment: flow cytometry, HEK293F cells expressing the receptor [Cont.]
# [10] = target: T5, mouse CD137 protein (Biacore); experiment: SPR Biacore
# [11] = target: T6, mouse CD137 fused with human FC fragment; experiment: ELISA, coated CD137-Fc
# [12] = target: T1, CD27 overexpressed on HEK293F cells; experiment: flow cytometry, HEK293F cells expressing the receptor, antibody 100 nM
# [13] = target: T2, GITR overexpressed on HEK293F cells; experiment: as above
# [14] = target: T3, OX40 overexpressed on HEK293F cells; experiment: as above
# [15] = target: T7, CD40 overexpressed on HEK293F cells; experiment: as above
# T7 sequence (P25942 21-277 limits assumed): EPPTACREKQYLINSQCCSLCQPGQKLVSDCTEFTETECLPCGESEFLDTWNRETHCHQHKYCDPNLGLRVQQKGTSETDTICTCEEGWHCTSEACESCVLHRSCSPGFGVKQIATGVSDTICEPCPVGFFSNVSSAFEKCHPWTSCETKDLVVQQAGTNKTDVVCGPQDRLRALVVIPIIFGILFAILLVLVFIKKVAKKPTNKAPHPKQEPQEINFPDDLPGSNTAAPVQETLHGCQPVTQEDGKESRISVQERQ
Binder,binding result [1],binding result [2],binding result [3],binding result [4],Mean [5],Mean [6],Mean [7],Mean [8],binding result [9],binding result [10],Kd [11],Mean [12],Mean [13],Mean [14],Mean [15]
B1,no binding (tested: 100 nM (text paragraph 226)),no binding (tested: 100 nM (text paragraph 226)),no binding (tested: 100 nM (text paragraph 226)),no binding (tested: 100 nM (text paragraph 226)),13200,5980,6780,7260,no binding (tested: 100 nM (text paragraph 226)),no binding,–,–,–,–,–
B2,–,–,–,–,–,–,–,–,–,–,0.3 nM,6660,18600,189000,9300

# — patent publication US20190055314A1 (ADAGENE, published 2019)
